Source: publication PMC10786891, “Massively parallel profiling of RNA-targeting CRISPR-Cas13d”

T1: EsCas13d, nuclease-dead (Eubacterium siraeum, UniProt B0MS50, R295A;H300A;R849A;H854A)
T1 sequence: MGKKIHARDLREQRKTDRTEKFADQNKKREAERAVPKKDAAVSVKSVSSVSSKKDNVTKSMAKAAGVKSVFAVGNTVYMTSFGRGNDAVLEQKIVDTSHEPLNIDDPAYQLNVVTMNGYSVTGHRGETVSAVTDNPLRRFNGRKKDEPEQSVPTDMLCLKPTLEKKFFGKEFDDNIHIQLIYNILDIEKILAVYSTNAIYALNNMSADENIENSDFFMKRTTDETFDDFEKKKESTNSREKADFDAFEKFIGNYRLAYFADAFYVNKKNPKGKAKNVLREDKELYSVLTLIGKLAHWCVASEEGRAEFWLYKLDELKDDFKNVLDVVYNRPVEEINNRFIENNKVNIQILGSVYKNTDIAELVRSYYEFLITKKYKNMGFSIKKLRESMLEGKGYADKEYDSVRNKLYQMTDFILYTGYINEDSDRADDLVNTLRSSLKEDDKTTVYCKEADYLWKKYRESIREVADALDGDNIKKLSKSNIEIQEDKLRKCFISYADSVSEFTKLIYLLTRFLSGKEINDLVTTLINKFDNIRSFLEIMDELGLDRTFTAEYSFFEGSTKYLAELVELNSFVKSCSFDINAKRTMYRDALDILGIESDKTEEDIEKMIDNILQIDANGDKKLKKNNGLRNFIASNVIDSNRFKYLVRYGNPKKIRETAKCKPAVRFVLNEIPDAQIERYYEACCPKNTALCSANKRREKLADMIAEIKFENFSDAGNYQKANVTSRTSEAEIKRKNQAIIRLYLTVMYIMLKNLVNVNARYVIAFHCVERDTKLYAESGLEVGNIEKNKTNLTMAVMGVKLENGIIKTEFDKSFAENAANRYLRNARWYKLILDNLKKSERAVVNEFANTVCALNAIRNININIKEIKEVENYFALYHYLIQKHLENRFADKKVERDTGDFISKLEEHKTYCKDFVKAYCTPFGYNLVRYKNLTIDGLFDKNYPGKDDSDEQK


Molecular target: T1, EsCas13d, nuclease-dead
Assay: crRNA (strand 1, pre-loaded); Mg2+; 40 mM Tris-HCl pH 7.5, 150 mM NaCl, 6 mM MgCl2, 1 mM DTT, 0.1% Tween-20, 0.2 mg/ml BSA; 25 C; 10 min per concentration, then washed
Conditions: tags: His6-TwinStrep-SUMO cleaved; N-terminal SNAP kept (SNAP-Surface 488); label: 3' end held by stalled T7 RNA polymerase

Binder	Kd
target 1 insU 3' of 20,insC 3' of 12 (mixed) RNA 1: CACCCGUGCAAAAAUGCAGGGGUCUAAAACUGAGCGGAUAACCUCUCUAUGG RNA 2: GGGAAUGGAUCCACAUCUACGAAUUCGUACCAUUAGAGAGGCUUAUCCGCUCACCGAGAUCGGAAGAGCACACGU	0.037 ± 0.014 µM
target 1 insG 3' of 11,insC 3' of 10 (mixed) RNA 1: CACCCGUGCAAAAAUGCAGGGGUCUAAAACUGAGCGGAUAACCUCUCUAUGG RNA 2: GGGAAUGGAUCCACAUCUACGAAUUCGUACCAUAGAGAGGUGUCAUCCGCUCACCGAGAUCGGAAGAGCACACGU	0.0213 ± 0.0009 µM
target 1 insC 3' of 8,insU 3' of 2 (mixed) RNA 1: CACCCGUGCAAAAAUGCAGGGGUCUAAAACUGAGCGGAUAACCUCUCUAUGG RNA 2: GGGAAUGGAUCCACAUCUACGAAUUCGUACCAUAGAGAGGUUAUCCCGCUCUACCGAGAUCGGAAGAGCACACGU	0.0213 ± 0.0028 µM
target 1 complement block 3-14 (mixed) RNA 1: CACCCGUGCAAAAAUGCAGGGGUCUAAAACUGAGCGGAUAACCUCUCUAUGG RNA 2: GGGAAUGGAUCCACAUCUACGAAUUCGUACCAUAGAGUCCAAUAGGCGACACCGAGAUCGGAAGAGCACACGU	~0.06 µM
target 1 insG 3' of 6,insA 3' of 2 (mixed) RNA 1: CACCCGUGCAAAAAUGCAGGGGUCUAAAACUGAGCGGAUAACCUCUCUAUGG RNA 2: GGGAAUGGAUCCACAUCUACGAAUUCGUACCAUAGAGAGGUUAUCCGGCUCAACCGAGAUCGGAAGAGCACACGU	0.0126 ± 0.0007 µM
target 1 insU 3' of 12,insC 3' of 5 (mixed) RNA 1: CACCCGUGCAAAAAUGCAGGGGUCUAAAACUGAGCGGAUAACCUCUCUAUGG RNA 2: GGGAAUGGAUCCACAUCUACGAAUUCGUACCAUAGAGAGGUUUAUCCGCCUCACCGAGAUCGGAAGAGCACACGU	0.0098 ± 0.0012 µM
target 1 C4G,A18U (mixed) RNA 1: CACCCGUGCAAAAAUGCAGGGGUCUAAAACUGAGCGGAUAACCUCUCUAUGG RNA 2: GGGAAUGGAUCCACAUCUACGAAUUCGUACCAUUGAGAGGUUAUCCGGUCACCGAGAUCGGAAGAGCACACGU	0.0227 ± 0.0024 µM
target 1 insA 3' of 22,insU 3' of 2 (mixed) RNA 1: CACCCGUGCAAAAAUGCAGGGGUCUAAAACUGAGCGGAUAACCUCUCUAUGG RNA 2: GGGAAUGGAUCCACAUCUACGAAUUCGUACACAUAGAGAGGUUAUCCGCUCUACCGAGAUCGGAAGAGCACACGU	0.0146 ± 0.001 µM
target 1 A1C,G12A (mixed) RNA 1: CACCCGUGCAAAAAUGCAGGGGUCUAAAACUGAGCGGAUAACCUCUCUAUGG RNA 2: GGGAAUGGAUCCACAUCUACGAAUUCGUACCAUAGAGAGAUUAUCCGCUCCCCGAGAUCGGAAGAGCACACGU	0.0066 ± 0.0005 µM
target 1 insA 3' of 15,insU 3' of 4 (mixed) RNA 1: CACCCGUGCAAAAAUGCAGGGGUCUAAAACUGAGCGGAUAACCUCUCUAUGG RNA 2: GGGAAUGGAUCCACAUCUACGAAUUCGUACCAUAGAGAAGGUUAUCCGCUUCACCGAGAUCGGAAGAGCACACGU	0.0095 ± 0.0012 µM
target 1 insG 3' of 11,insU 3' of 9 (mixed) RNA 1: CACCCGUGCAAAAAUGCAGGGGUCUAAAACUGAGCGGAUAACCUCUCUAUGG RNA 2: GGGAAUGGAUCCACAUCUACGAAUUCGUACCAUAGAGAGGUGUAUUCCGCUCACCGAGAUCGGAAGAGCACACGU	0.028 ± 0.005 µM
target 1 G12U,G15A (mixed) RNA 1: CACCCGUGCAAAAAUGCAGGGGUCUAAAACUGAGCGGAUAACCUCUCUAUGG RNA 2: GGGAAUGGAUCCACAUCUACGAAUUCGUACCAUAGAAAGUUUAUCCGCUCACCGAGAUCGGAAGAGCACACGU	0.0113 ± 0.0013 µM
target 1 del8,del20 (mixed) RNA 1: CACCCGUGCAAAAAUGCAGGGGUCUAAAACUGAGCGGAUAACCUCUCUAUGG RNA 2: GGGAAUGGAUCCACAUCUACGAAUUCGUACCUAGAGAGGUUACCGCUCACCGAGAUCGGAAGAGCACACGU	0.074 ± 0.009 µM
